# Test results as given in US20140031283A1, “ANTICANCER FUSION PROTEIN” (ADAMED SP. Z O.O., priority 2011, published 2014).
# Where “and” joins values, the source holds several entries; their conditions need not be identical. Equal entries are not always repeated.
# B1: Ex. 2^a: fusion protein: 8-amino acid fragment of human fetoprotein (SEQ. No. 28) at N-terminus of TRAIL114-281, uPA cleavage site (protein)
# chain: EMTPVNPGRVVRERGPQRVAAHITGTRGRSNTLSSPNSKNEKALGRKINSWESSRSGHSFLSNLHLRNGELVIHEKGFYYIYSQTYFRFQEEIKENTKNDKQMVQYIYKYTSYPDPILLMKSARNSCWSKDAEYGLYSIYQGGIFELKENDRIFVSVTNEHLIDMDHEASFFGAFLVG
# modifications: synthesized, a fusion protein comprising: a fragment of TRAIL protein, a fragment of human fetoprotein and a cleavage site recognized by urokinase uPA.
# B2: Ex. 17: fusion protein: 13-amino acid fragment of tubulin with 6 arginine residues at N-terminus of TRAIL121-281, uPA and MMP sites (protein)
# chain: FRRKAFLHWYTGRRRRRRRRVVRPLGLAGRVAAHITGTRGRSNTLSSPNSKNEKALGRKINSWESSRSGHSFLSNLHLRNGELVIHEKGFYYIYSQTYFRFQEEIKENTKNDKQMVQYIYKYTSYPDPILLMKSARNSCWSKDAEYGLYSIYQGGIFELKENDRIFVSVTNEHLIDMDHEASFFGAFLVG
# modifications: synthesized, a fusion protein comprising: a fragment of TRAIL protein, a fragment of tubulin peptide, cleavage sites recognized by urokinase uPA and metalloprotease MMP and an arginine transporting domain.
# notes: fusion protein: 13-amino acid fragment of tubulin with 6 arginine residues at N-terminus of TRAIL121-281, uPA and MMP sites
# B3: Ex. 14: fusion protein: 13-amino acid fragment of MEK-1 protein with antennapedia sequence at C-terminus of TRAIL121-281, MMP and uPA sites (protein)
# chain: RVAAHITGTRGRSNTLSSPNSKNEKALGRKINSWESSRSGHSFLSNLHLRNGELVIHEKGFYYIYSQTYFRFQEEIKENTKNDKQMVQYIYKYTSYPDPILLMKSARNSCWSKDAEYGLYSIYQGGIFELKENDRIFVSVTNEHLIDMDHEASFFGAFLVGGSPLGLAGRVVRDRQIKIWFQNRRMKWKKGMPKKKPTPIQLN
# modifications: synthesized, a fusion protein comprising: a fragment of TRAIL protein, a fragment of MEK-1 protein - an inhibitor of ERK activation, cleavage sites recognized by uPA and MMP, an antennapedia transporting domain and a glycine- cysteine linker.
# Legend:
# [1] = tested on: UM-UC-3; assay: MTT cytotoxicity test, UM-UC-3 (human bladder cancer); format: cell-based; conditions: Table 4, mean/SD part
# Excerpt: (§1) MTT assay is a colorimetric assay used to measure proliferation, viability and cytotoxicity of cells. It consists in decomposition of a yellow tetrazolium salt MTT (4,5-dimethyl-2-thiazolyl)-2,5-diphenyltetrazolium bromide) to the water-insoluble purple dye formazan by mitochondrial enzyme succinate-tetrazolium reductase 1. MTT reduction occurs only in living cells. Data analysis consists in determining IC50 concentration of the protein (in ng/ml), at which the 50% reduction in the number of cells occurs in the population treated compared to control cells. Results were analyzed using GraphPad Prism 5.0 software. The test was performed according to the literature descriptions (Cells, J E, (1998). Cell Biology, a Laboratory Handbook, second edition, Academic Press, San Diego; Yang, Y., Koh, L W, Tsai, J H., (2004); Involvement of viral and chemical factors with oral cancer in Taiwan, Jpn J Clin Oncol, 34 (4), 176-183). Cell culture medium was diluted to a defined density (10^4-10^5 cells per 100 μl). Then 100 μl of appropriately diluted cell suspension was applied to a 96-well plate in triplicates. […] After stirring, the absorbance was measured at 570 nm (reference filter 690 nm). […]
# [2] = tested on: NIH: OVCAR-3; assay: MTT cytotoxicity test, NIH: OVCAR-3 (human ovarian cancer); format: cell-based; conditions: Table 4, mean/SD part
# Excerpt: as §1
# [3] = tested on: MES-SA/Dx5; assay: MTT cytotoxicity test, MES-SA/Dx5 (multidrug-resistant human uterine sarcoma); format: cell-based; conditions: for MES-SA/Dx5 mean (IC50): Table 4, mean/SD part
# Excerpt: (§2) MTT assay is a colorimetric assay used to measure proliferation, viability and cytotoxicity of cells. It consists in decomposition of a yellow tetrazolium salt MTT (4,5-dimethyl-2-thiazolyl)-2,5-diphenyltetrazolium bromide) to the water-insoluble purple dye formazan by mitochondrial enzyme succinate-tetrazolium reductase 1. MTT reduction occurs only in living cells. Data analysis consists in determining IC50 concentration of the protein (in ng/ml), at which the 50% reduction in the number of cells occurs in the population treated compared to control cells. Results were analyzed using GraphPad Prism 5.0 software. The test was performed according to the literature descriptions (Cells, J E, (1998). Cell Biology, a Laboratory Handbook, second edition, Academic Press, San Diego; Yang, Y., Koh, L W, Tsai, J H., (2004); Involvement of viral and chemical factors with oral cancer in Taiwan, Jpn J Clin Oncol, 34 (4), 176-183). Cell culture medium was diluted to a defined density (10^4-10^5 cells per 100 μl). Then 100 μl of appropriately diluted cell suspension was applied to a 96-well plate in triplicates. Thus prepared cells were incubated for 24 h at 37° C. in 5% or 10% CO2, depending on the medium used, and then to the cells (in 100 μl of medium) further 100 μl of the medium containing various concentrations of tested proteins were added. In the case of combination hTRAIL114-281 and p21WAF effector protein, 100 μl of the medium containing mixture of hTRAIL114-281 and p21WAF effector protein in molar ratio 1:1 was added. After incubation of the cells with tested proteins over the period of next 72 hours, which is equivalent to 3-4 times of cell division, the medium with the test protein was added with […] of MTT working solution [5 mg/ml], and incubation was continued for 3 h at 37° C. in 5% CO2. Then the medium with MTT solution was removed, and formazan crystals were dissolved by adding 100 μl of DMSO. After stirring, the absorbance was measured at 570 nm (reference filter 690 nm).
# (§3) The results of in vitro cytotoxicity tests are summarized as IC50 values (ng/ml), which corresponds to the protein concentration at which the cytotoxic effect of fusion proteins is observed at the level of 50% with respect to control cells treated only with solvent. Each experiment represents the average value of at least two independent experiments performed in triplicates. As a criterion of lack of activity of protein preparations the IC50 limit of 2000 ng/ml was adopted.
# Cells selected for this test included tumor cell lines that are naturally resistant to TRAIL protein (the criterion of natural resistance to TRAIL: IC50 for TRAIL protein >2000), as well as tumor cell lines sensitive to TRAIL protein and resistant to doxorubicin line MES-SA/DX5 as a cancer line resistant to conventional anticancer medicaments.
# [4] = tested on: SK-MES-1; assay: MTT cytotoxicity test, SK-MES-1 (human lung cancer); format: cell-based; conditions: for SK-MES-1 mean (IC50): Table 4, mean/SD part
# Excerpt: as §2, §3
# [5] = tested on: human colon cancer HCT116; assay: HCT116 colon cancer xenograft in Crl:CD1-Foxn1^nu 1 mice; format: in vivo; conditions: HCT116, Crl:CD1-Foxn1^nu 1 mice, 10 mg/kg i.v., 10 daily applications with a two-day break after the first 5, 27th day
# Description: (§4) Antitumor activity of protein preparations was tested in a mouse model of human colon cancer HCT116, human colon cancer Colo205, human colon cancer model SW620, human liver cancer model HepG2, and human lung cancer models NCI-H460 and NCI-H460-Luc2.
# (§5) The HCT116 (in mice Crl:CD1-Foxn1^nu 1), Colo205, NCI-H460, NCI-H460-Luc2 cells were maintained in RPMI 1640 medium (Hyclone, Logan, Utah, USA) mixed in the ratio of 1:1 with Opti-MEM (Invitrogen, Cat.22600-134) supplemented with 10% fetal calf serum and 2 mM glutamine. On the day of mice grafting, the cells were detached from the support by washing the cells with trypsin (Invitrogen), then the cells were centrifuged at 1300 rpm, 4° C., 8 min., suspended in HBSS buffer (Hanks medium), counted and diluted to the concentration of 25×10^6 cells/ml.
# (§6) Examination of antitumor activity of proteins of the invention was conducted on 7-9 week-old CD-nude (Crl:CD1-Foxn1^nu 1) or 4-6 week-old Crl:SHO-Prkdc^scidHr^hr mice obtained from Charles River Germany. Mice were kept under specific pathogen-free conditions with free access to food and demineralised water (ad libitum). All experiments on animals were carried in accordance with the guidelines: “Interdisciplinary Principles and Guidelines for the Use of Animals in Research. […]
# [6] = tested on: human lung cancer NCI-H460-Luc2; assay: NCI-H460-Luc2 lung cancer xenograft in Crl:CD1-Foxn1nu 1 mice; format: in vivo; conditions: NCI-H460-Luc2, Crl:CD1-Foxn1nu 1 mice, 20 mg/kg i.v. six times every second day, 30th day
# Description: as §4, §5, §6
# [7] = tested on: NCI-H460; conditions: Table 4, mean/SD part
# Description: Data analysis consists in determining IC50 concentration of the protein (in ng/ml), at which the 50% reduction in the number of cells occurs in the population treated compared to control cells. Results were analyzed using GraphPad Prism 5.0 software. […] Cell culture medium was diluted to a defined density (10^4-10^5 cells per 100 μl). Then 100 μl of appropriately diluted cell suspension was applied to a 96-well plate in triplicates. Thus prepared cells were incubated for 24 h at 37° C. in 5% or 10% CO2, depending on the medium used, and then to the cells (in 100 μl of medium) further 100 μl of the medium containing various concentrations of tested proteins were added. […] After incubation of the cells with tested proteins over the period of next 72 hours, which is equivalent to 3-4 times of cell division, the medium with the test protein was added with 20 ml of MTT working solution [5 mg/ml], and incubation was continued for 3 h at 37° C. in 5% CO2. Then the medium with MTT solution was removed, and formazan crystals were dissolved by adding 100 μl of DMSO. After stirring, the absorbance was measured at 570 nm (reference filter 690 nm).
# [8] = tested on: HCT-116
# [9] = tested on: HT-29; assay: MTT cytotoxicity test, HT-29 (human colorectal cancer); format: cell-based; conditions: Table 4, mean/SD part; listed as Ex. 17^a
# Excerpt: as §1
# [10] = tested on: A549; assay: MTT cytotoxicity test, A549 (human lung cancer); format: cell-based
# Excerpt: as §2, §3
# [11] = tested on: MES-SA; assay: MTT cytotoxicity test, MES-SA (human uterine sarcoma); format: cell-based; conditions: continuous incubation over 72 h, test MTT
# Excerpt: as §2, §3
# [12] = tested on: MCF10A; assay: MTT cytotoxicity test, MCF10A (mammary epithelial cells); format: cell-based; conditions: continuous incubation over 72 h, test MTT
# Excerpt: as §2, §3
# [13] = tested on: TRAIL sensitive cell lines; assay: in vitro cytotoxicity tests, TRAIL sensitive cell lines; format: cell-based; conditions: continuous incubation over 72 h, test MTT; versus rhTRAIL 95-281 (cell line not given)
# Excerpt: as §2, with “nm). […]” for “nm).”
# [14] = continuous incubation over 72 h, test MTT
Molecule,UM-UC-3 mean (IC50) [1] [µg/mL],OVCAR-3 mean (IC50) [2] [µg/mL],MES-SA/Dx5 mean (IC50) [3] [µg/mL],SK-MES-1 mean (IC50) [4] [µg/mL],tumor growth inhibition (TGI) relative to the control [5] [%],tumor growth inhibition (TGI) relative to the control [6] [%],NCI-H460 mean (IC50) [7] [µg/mL],"HCT116 mean (IC50) ([8]; Table 4, mean/SD part)",HT 29 mean (IC50) [9],"A549 mean (IC50) ([10]; Table 4, mean/SD part) [µg/mL]",MES-SA/Dx5 mean (IC50) ([3]; listed as Ex. 17^a),"A549 IC50 [10, 14] [µg/mL]",MES-SA IC50 [11] [µg/mL],"MES-SA/Dx5 IC50 [3, 14] [µg/mL]","SK-MES-1 IC50 [4, 14] [µg/mL]",MCF10A IC50 [12] [µg/mL],IC50 [13] [µg/mL],"HCT116 IC50 [8, 14] [µg/mL]"
B1,0.03506,0.0261,0.01896,0.01888,71.2,81.3,4.246,0.06 µg/mL and 0.06087 µg/mL,–,–,–,–,–,–,–,–,–,–
B2,–,–,–,0.08119,–,–,–,–,6.808 µg/mL and 7.818 µg/mL,2.887,0.07596 µg/mL and 0.04426 µg/mL,–,–,–,–,–,–,–
B3,–,–,–,–,–,–,–,–,–,–,–,1.767,0.2312,0.01373,0.02848,>2,0.049,0.1235
